According to article PMC6586375:

Molecular target: His-tagged BspC labelled with the Monolith His-Tag Labeling Kit RED-tris-NTA 2nd Generation (Streptococcus agalactiae)
Assay: MST; labelled His-tagged BspC constant at 10 nM, vimentin titrated 1:1 in 16 steps from 20 μM to 0 μM; standard capillaries, Monolith NT.115 Pico, 20% excitation power, 40% MST power; three independent experiments

## vimentin purchased from Novus Biologicals (from UniProt P08670 1-466) (natural protein)
  Kd: 3.39 µM
